In the assay the target is endogenous β-actin of the bovine neutrophil plasma membrane (bovine) (UniProt P60712). Description: control of the co-immunoprecipitation, protein A-agarose beads.

“nonspecific rabbit IgG (polyclonal serum or antibody)” registered a β-actin co-precipitated relative to the anti-pepA immunoprecipitate of less than 5%.

(Values after US5985608.)
